Here are results for one substance from publication PMC4734655.

For this assay, the target named is recombinant human IL-8 (interleukin-8) (human). Description: SPR; Biacore; IL-8 immobilised on a CM5 chip by amine coupling (Fc2), BSA on the reference cell (Fc1); soluble recombinant Mtb proteins as analytes at 2.5, 5, 10 and 20 uM; 22 °C, PBS pH 7.4 with 0.005% P20; flow 5 ul/min; one-to-one model.

Chain of recombinant M. tuberculosis rSahH (His-tagged, from pHis-sahH) (P9WGV3 whole entry): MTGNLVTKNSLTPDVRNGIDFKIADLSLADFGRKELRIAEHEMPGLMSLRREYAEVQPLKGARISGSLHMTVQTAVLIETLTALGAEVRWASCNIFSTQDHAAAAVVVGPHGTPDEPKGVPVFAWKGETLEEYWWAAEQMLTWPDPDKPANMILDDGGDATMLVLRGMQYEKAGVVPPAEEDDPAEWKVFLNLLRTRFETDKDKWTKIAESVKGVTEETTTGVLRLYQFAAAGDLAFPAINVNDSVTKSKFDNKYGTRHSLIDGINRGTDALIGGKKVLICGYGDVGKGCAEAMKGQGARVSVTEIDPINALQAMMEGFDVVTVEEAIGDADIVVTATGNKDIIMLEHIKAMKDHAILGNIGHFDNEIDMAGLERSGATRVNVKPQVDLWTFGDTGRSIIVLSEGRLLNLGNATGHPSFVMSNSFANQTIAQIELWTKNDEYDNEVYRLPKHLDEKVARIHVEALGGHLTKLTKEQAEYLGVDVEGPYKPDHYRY

With “recombinant M. tuberculosis rSahH (His-tagged, from pHis-sahH) (from UniProt P9WGV3 1-495) (enzyme)”, the Kd came out at 0.714 nM.
